In the RNAGym collection of RNA variant scans (doi:10.7554/elife.80360) one finds self-cleavage data, which are given here for 167 variants.

B1: Hairpin Ribozyme (parent)
chain: GUCCUCUUUCACGUGCGCGUGAAAGAGAGAAGUGAACCAGAGAAACACACGUUGUGGUAUAUUACCUGGUA

Variants of B1 are the subject of this series. Nature of the series: self-cleavage, relative activity (ratio to wild type); higher = more cleavage; co-transcriptional.
With G1A C37U, the self-cleavage came out at 0.196.
Regarding G1U U52C, the self-cleavage amounted to 0.261.
As for G1A A59U, the figure is 0.286; as for G1C C38U, 0.198.
Turning to G1U U14A, the self-cleavage stood at 0.041.
Take G1U U14C: the self-cleavage amounted to 0.128.
For G1C G40C, the self-cleavage was 0.0947.
For the variant G1C C50A, the self-cleavage amounted to 0.147.
Take G1C C50U: the self-cleavage is 0.321.
As to G1U C16A, the self-cleavage was determined as 0.111.
As for G1A C6A, the figure is 0.197.
Next, G1A C10A: 0.175.
As to G1A G15C, the self-cleavage was 0.287.
On to G1A G56C, for which the self-cleavage came to 0.282.
Next, G1A G56U: 0.0996; G1C U67C: 0.119.
As for G1A G68C, the self-cleavage is 0.181.
Regarding G1U A44C, the self-cleavage worked out at 0.0421.
Consider G1A C46G, for which the self-cleavage turned out to be 0.104.
Regarding G1A U67C, the self-cleavage was found to be 0.178.
G1C U55A: the self-cleavage came out at 0.0884.
As for G1C U55C, the self-cleavage was 0.18.
As to G1C U58G, the self-cleavage turned out to be 0.284.
Turning to G1U A71C, the self-cleavage stood at 0.273.
As for G1C U20C, the figure is 0.241; as for G1A C48G, 0.201; as for G1A G42U, 0.0643.
Turning to G1U C4G, the self-cleavage stood at 0.213.
Take G1C A39C: the self-cleavage came to 0.225.
As for G1C A39G, the self-cleavage turned out to be 0.146.
For the variant G1C U52C, the self-cleavage came to 0.132.
For the variant G1U, the self-cleavage stood at 0.13.
For the variant G1A, the self-cleavage came out at 0.185.
With G1C, the self-cleavage came to 0.203.
Next, G1U C50U: 0.0718; G1U U8A: 0.144.
As for G1U U8G, the self-cleavage was found to be 0.0482.
On to G1A G54C, for which the self-cleavage turned out to be 0.193.
Next, G1U A36G: 0.184; G1A C38A: 0.111.
For G1A C12G, the self-cleavage came out at 0.263.
Take G1A C12A: the self-cleavage came out at 0.131.
On to G1U G21A, for which the self-cleavage came out at 0.129.
G1A C3G: the self-cleavage was found to be 0.342.
G1A G69U: the self-cleavage was determined as 0.235.
For G1A A41G, the self-cleavage turned out to be 0.0682.
As for G1U G15A, the figure is 0.171.
Consider G1C A26C, for which the self-cleavage stood at 0.14.
Regarding G1C A26G, the self-cleavage was 0.239.
For the variant G1U G40C, the self-cleavage worked out at 0.055.
In the case of G1C U53A, the self-cleavage stood at 0.2.
Consider G1C G68A, for which the self-cleavage came out at 0.362.
As for G1C C3A, the self-cleavage came out at 0.257.
Turning to G1C U63G, the self-cleavage came out at 0.0496.
As for G1C U2G, the figure is 0.306.
For G1C U2A, the self-cleavage was determined as 0.251.
As for G1C G21U, the figure is 0.274; as for G1C G21A, 0.109.
For G1U C48A, the self-cleavage was found to be 0.134.
Consider G1A G57A, for which the self-cleavage turned out to be 0.177.
As for G1A G57U, the figure is 0.179; as for G1C C46U, 0.0993.
On to G1C C46A, for which the self-cleavage is 0.208.
Regarding G1C C46G, the self-cleavage worked out at 0.307.
In the case of G1U C3A, the self-cleavage came out at 0.161.
As for G1U C3G, the figure is 0.122.
G1C G51U: the self-cleavage turned out to be 0.181.
Consider G1C G51C, for which the self-cleavage is 0.0946.
As for G1A A49G, the figure is 0.233; as for G1A U5C, 0.269; as for G1U A24U, 0.117.
As for G1C G15A, the self-cleavage is 0.184.
For G1C G27A, the self-cleavage came to 0.16.
As to G1C C6U, the self-cleavage amounted to 0.249.
With G1C C6G, the self-cleavage was determined as 0.249.
For G1A U20A, the self-cleavage was determined as 0.213.
As to G1U G34A, the self-cleavage is 0.143.
Turning to G1U G34U, the self-cleavage is 0.19.
As to G1C U8A, the self-cleavage was determined as 0.27.
G1C G42C: the self-cleavage stood at 0.272.
For the variant G1U A22C, the self-cleavage turned out to be 0.146.
In the case of G1U A11U, the self-cleavage worked out at 0.201.
As for G1U A11G, the self-cleavage was 0.143.
Next, G1U G19A: 0.208; G1C C16G: 0.238.
As for G1U G54C, the self-cleavage came out at 0.176.
For G1C A45G, the self-cleavage was determined as 0.0824.
In the case of G1C A45C, the self-cleavage was found to be 0.
Turning to G1C U62G, the self-cleavage came to 0.4.
G1C U62A: the self-cleavage worked out at 0.0347.
For the variant G1A U63C, the self-cleavage is 0.166.
As to G1A U33G, the self-cleavage stood at 0.119.
G1C G69U: the self-cleavage was found to be 0.144.
Consider G1C G69A, for which the self-cleavage came to 0.141.
Take G1A G34C: the self-cleavage was 0.09.
For the variant G1A G34U, the self-cleavage stood at 0.189.
Turning to G1U C65U, the self-cleavage is 0.0631.
As for G1U C65G, the figure is 0.236.
Consider G1C U7G, for which the self-cleavage turned out to be 0.258.
As for G1U G57A, the figure is 0.175.
Turning to G1U U2G, the self-cleavage is 0.22.
On to G1C A11U, for which the self-cleavage came out at 0.179.
For the variant G1A C18U, the self-cleavage came out at 0.256.
For the variant G1A C16G, the self-cleavage was determined as 0.169.
In the case of G1U U55A, the self-cleavage was determined as 0.224.
With G1U U20A, the self-cleavage amounted to 0.1.
On to G1C A23U, for which the self-cleavage amounted to 0.197.
Regarding G1C A23C, the self-cleavage turned out to be 0.103.
Next, G1C G56C: 0.202.
For G1C G56A, the self-cleavage came out at 0.0459.
Turning to G1A C66G, the self-cleavage was 0.225.
In the case of G1A A23U, the self-cleavage was 0.163.
For G1U C6U, the self-cleavage was 0.139.
In the case of G1U A35C, the self-cleavage was found to be 0.0858.
Regarding G1U A35G, the self-cleavage is 0.0705.
On to G1C G57C, for which the self-cleavage is 0.118.
Next, G1C G57A: 0.134; G1A A35C: 0.109; G1A A35G: 0.16.
As for G1U A61G, the figure is 0.041; as for G1U A61C, 0.0683; as for G1U A61U, 0.116.
With G1C A36C, the self-cleavage amounted to 0.107.
On to G1C A36G, for which the self-cleavage stood at 0.105.
Consider G1C G13U, for which the self-cleavage is 0.225.
Consider G1C G13C, for which the self-cleavage was 0.179.
For the variant G1C G13A, the self-cleavage is 0.0408.
With G1U C46A, the self-cleavage was found to be 0.106.
For G1C C37U, the self-cleavage was 0.177.
Turning to G1C G17C, the self-cleavage is 0.295.
For the variant G1C G17A, the self-cleavage is 0.232.
With G1A A36U, the self-cleavage is 0.0776.
For G1U U5A, the self-cleavage was found to be 0.163.
For G1A G32A, the self-cleavage amounted to 0.196.
G1A G32U: the self-cleavage worked out at 0.184.
G1U C18G: the self-cleavage turned out to be 0.131.
Next, G1A G25C: 0.209; G1U A28U: 0.198; G1C G29C: 0.203.
For the variant G1U G69A, the self-cleavage worked out at 0.0764.
G1C G34U: the self-cleavage came to 0.344.
Take G1C A24G: the self-cleavage came to 0.129.
On to G1A A61G, for which the self-cleavage came out at 0.132.
For the variant G1A A61C, the self-cleavage was found to be 0.175.
Turning to G1C A59U, the self-cleavage is 0.114.
For the variant G1C A59G, the self-cleavage worked out at 0.0434.
As for G1C G25A, the figure is 0.154; as for G1C G25C, 0.159.
For G1C A41G, the self-cleavage was 0.129.
Next, G1U U53A: 0.0738; G1U U9G: 0.224.
As to G1U U9C, the self-cleavage was 0.0677.
For G1C A30G, the self-cleavage worked out at 0.322.
Next, G1U A41G: 0.0954.
As to G1C C65A, the self-cleavage came out at 0.141.
As to G1U A39G, the self-cleavage was 0.121.
For G1C A22G, the self-cleavage was found to be 0.255.
For the variant G1U G56U, the self-cleavage was found to be 0.0984.
For G1U G13U, the self-cleavage came to 0.156.
Consider G1U G13C, for which the self-cleavage was 0.151.
On to G1A C50G, for which the self-cleavage came to 0.277.
In the case of G1A C50A, the self-cleavage was determined as 0.127.
For the variant G1A G27C, the self-cleavage amounted to 0.213.
As for G1U G51C, the figure is 0.175.
Turning to G1U G51A, the self-cleavage came out at 0.205.
As for G1C G32A, the self-cleavage was 0.198.
As for G1U A59G, the self-cleavage was 0.216.
